Laboratory results as given in patent publication US20220160843A1 (priority 2019, published 2022).
Residue numbers refer to the chain shown, from its start. Numbers in names are those of the source. Where two headings read alike, the source gives them in different places.

Key:
[1] = test system: carbapenem-resistant P. aeruginosa strains; experiment: Resensitization of carbapenem-resistant clinical strains using carbapenems in combination with lysins; type: cell-based; details: for MIC: Pseudomonas aeruginosa, meropenem alone (GN121 checkerboard)
Procedure: (§1) The checkerboard assays is based on a modification of the CLSI method for MIC determination by broth microdilution (26, 29). Checkerboards were constructed by first preparing columns of a 96-well polypropylene microtiter plate, in which each well had the same amount of antibiotic diluted 2-fold along the horizontal axis. […] Summation fractional inhibitory concentrations (ΣFICs) were calculated for each drug and the minimum ΣFIC value (ΣFICmin) was used to determine synergy. ΣFICs were calculated as follows: ΣFIC=FIC A+FIC B, where FIC A is the MIC of each antibiotic in the combination/MIC of each antibiotic alone, and FIC B is the MIC of each GN lysin in the combination/MIC of each GN lysin alone. The combination is considered synergistic when the ΣFIC is ≤0.5, strongly additive when the ΣFIC is >0.5 to <1, additive with the ΣFIC is 1−<2, and antagonistic when the ΣFIC is ≥2.
Up to seven carbapenem-resistant isolates were assessed. […] See Clinical and Laboratory Standards Institute (CLSI), CLSI. […] M100 Performance Standards for Antimicrobial Susceptibility Testing; 29th Edition. Clinical and Laboratory Standards Institute, Wayne, Pa.

P. aeruginosa [2] = experiment: Minimal inhibitory concentration (MIC), modified CLSI broth microdilution in CAA or CAA/HuS; type: cell-based, Pseudomonas aeruginosa; details: for MIC (μg/mL) in CAA: CAA media; for MIC (μg/mL in CAA/HuS) / MIC value in CAA/HuS: CAA supplemented with 25% human serum
[3] = test system: P. aeruginosa strain ATCC 17647; experiment: Minimal Biofilm Eradicating Concentration (MBEC), Calgary Biofilm Device; type: cell-based, Pseudomonas aeruginosa; details: 24 h biofilm, 24 h treatment; minimum concentration removing >95% of biofilm biomass (crystal violet)
Description: All samples were examined in triplicate.

P. aeruginosa [4] = experiment: Time-kill assay of GN lysin activity; type: cell-based, Pseudomonas aeruginosa; details: for Log10 CFU/mL T = 3 hr / Log10 CFU/mL T = l hr: lysin 10 μg/mL, T = 0 7.8; for Log10 CFU/mL T = 3 hr: buffer control 7.2, limit of detection 3.7; for Log10 CFU/mL T = l hr: buffer control 7.7
Procedure: All treatments were incubated at 37° C. with aeration.

[5] = test system: carbapenem-resistant clinical strain, WC-452; experiment: Checkerboard assay to examine synergy with antibiotics in CAA/HuS; type: cell-based, P. aeruginosa; details: for FICI, Amikacin: lysin + amikacin; for FICI, Azithromycin: lysin + azithromycin; for FICI, Aztreonam: lysin + aztreonam; for FICI, Ciprofloxacin: lysin + ciprofloxacin; for FICI, Colistin: lysin + colistin; for FICI, Fosfomycin: lysin + fosfomycin; for FICI, Gentamicin: lysin + gentamicin; for FICI, Imipenem: lysin + imipenem; for FICI, Piperacillin: lysin + piperacillin; for FICI, Rifampicin: lysin + rifampicin; for FICI, Tobramycin: lysin + tobramycin
Procedure: Fractional inhibitor concentration index (FICI) values were determined for all combinations; values of <0.5 indicate synergy.
as §1

[6] = CAA/HuS, ‡ indicates bactericidal activity
[7] = HEPES buffer, ‡ indicates bactericidal activity

## C[C@@H](O)[C@H]1C(=O)N2C(C(=O)O)=C(SCCN=CN)C[C@H]12 [Imipenem, imipenem, reference compound]
[1]; isolate PA19, imipenem in combination with GN121
  IMIPENEM MIC Combination: 1 (S) μg/mL
[1]; isolate PA19, imipenem in combination with GN123
  IMIPENEM MIC Combination: 0.5 (S) μg/mL
[1]; isolate PA20, imipenem in combination with GN121
  IMIPENEM MIC Combination: 0.5 (S) μg/mL
[1]; isolate PA20, imipenem in combination with GN123
  IMIPENEM MIC Combination: 1 (S) μg/mL
[1]; isolate PA21, imipenem in combination with GN121
  IMIPENEM MIC Combination: 1 (S) μg/mL
[1]; isolate PA21, imipenem in combination with GN123
  IMIPENEM MIC Combination: 0.5 (S) μg/mL
[1]; isolate PA22, imipenem in combination with GN121
  IMIPENEM MIC Combination: 2 (S) μg/mL
[1]; isolate PA22, imipenem in combination with GN123
  IMIPENEM MIC Combination: 2 (S) μg/mL
[1]; isolate PA23, imipenem in combination with GN123
  IMIPENEM MIC Combination: 0.25 (S) μg/mL
[1]; isolate PA24, imipenem in combination with GN121
  IMIPENEM MIC Combination: 1 (S) μg/mL
[1]; isolate PA24, imipenem in combination with GN123
  IMIPENEM MIC Combination: 2 (S) μg/mL
[1]; isolate WC-452, imipenem in combination with GN123
  IMIPENEM MIC Combination: 1 (S) μg/mL

## C[C@@H](O)[C@H]1C(=O)N2C(C(=O)O)=C(S[C@@H]3CN[C@H](C(=O)N(C)C)C3)[C@H](C)[C@H]12 [Meropenem, meropenem, reference compound]
[1]; GN121, read-out: Meropenem MIC Alone, isolate PA19
  MIC: 32 µg/mL
[1]; GN121, read-out: Meropenem MIC Alone, isolate PA21
  MIC: 32 µg/mL
[1]; GN121, read-out: Meropenem MIC Alone, isolate PA22
  MIC: 16 µg/mL
[1]; GN121, read-out: Meropenem MIC Alone, isolate PA23
  MIC: 16 µg/mL
[1]; GN121, read-out: Meropenem MIC Alone, isolate PA24
  MIC: 32 µg/mL
[1]; GN121, read-out: Meropenem MIC Alone, isolate WC-452
  MIC: 16 µg/mL
[1]; isolate PA19, meropenem in combination with GN121
  Meropenem MIC Combination: 1 µg/mL
[1]; isolate PA19, meropenem in combination with GN123
  Meropenem MIC Combination: 0.5 (S) μg/mL
[1]; isolate PA20, meropenem in combination with GN121
  Meropenem MIC Combination: 1 µg/mL
[1]; isolate PA20, meropenem in combination with GN123
  Meropenem MIC Combination: 0.5 (S) μg/mL
[1]; isolate PA21, meropenem in combination with GN121
  Meropenem MIC Combination: 2 µg/mL
[1]; isolate PA21, meropenem in combination with GN123
  Meropenem MIC Combination: 1 (S) μg/mL
[1]; isolate PA22, meropenem in combination with GN121
  Meropenem MIC Combination: 1 µg/mL
[1]; isolate PA22, meropenem in combination with GN123
  Meropenem MIC Combination: 1 (S) μg/mL
[1]; isolate PA23, meropenem in combination with GN121
  Meropenem MIC Combination: 2 µg/mL
[1]; isolate PA23, meropenem in combination with GN123
  Meropenem MIC Combination: 0.5 (S) μg/mL
[1]; isolate PA24, meropenem in combination with GN121
  Meropenem MIC Combination: 1 µg/mL
[1]; isolate PA24, meropenem in combination with GN123
  Meropenem MIC Combination: 2 (S) μg/mL
[1]; isolate WC-452, meropenem in combination with GN121
  Meropenem MIC Combination: 1 µg/mL
[1]; isolate WC-452, meropenem in combination with GN123
  Meropenem MIC Combination: 1 (S) μg/mL

B1: GN156: Modified GN4, addition of N-terminal peptide GPRRPRRPGRRAPV, SEQ ID NO: 6 (protein)
chain: GPRRPRRPGRRAPVMRTSQRGIDLIKSFEGLRLSAYQDSVGVWTIGYGTTRGVTRYMTITVEQAERMLSNDIQRFEPELDRLAKVPLNQNQWDALMSFVYNLGAANLASSTLLKLLNKGDYQGAADQFPRWVNAGGKRLDGLVKRRAAERALFLEPLS
P. aeruginosa [2]
  MIC (μg/mL) in CAA: 32 µg/mL
  MIC (μg/mL in CAA/HuS): 2 µg/mL
[3]
  MBEC: 0.5 µg/mL
P. aeruginosa [4]; [6]
  Log10 CFU/mL T = 3 hr: <3.7‡ Log10 CFU/mL
P. aeruginosa [4]; CAA/HuS
  Log10 CFU/mL T = l hr: 5.7 Log10 CFU/mL
P. aeruginosa [4]; [7]
  Log10 CFU/mL T = 3 hr: <3.7‡ Log10 CFU/mL
  Log10 CFU/mL T = l hr: 5.7 Log10 CFU/mL

B2: GN54: Modified GN4, N-terminal peptide KRKKRKKRK with linker, SEQ ID NO: 8 (protein)
chain: KRKKRKKRKAGAGAGAGAGAGAGAGASMRTSQRGIDLIKSFEGLRLSAYQDSVGVWTIGYGTTRGVTRYMTITVEQAERMLSNDIQRFEPELDRLAKVPLNQNQWDALMSFVYNLGAANLASSTLLKLLNKGDYQGAADQFPRWVNAGGKRLDGLVKRRAAERALFLEPLS
P. aeruginosa [2]
  MIC (μg/mL) in CAA: 64 µg/mL
  MIC (μg/mL in CAA/HuS): 2 µg/mL
  MIC value in CAA/HuS: 2 µg/mL
P. aeruginosa [2]; human serum
  activity in serum: does have activity in serum

B3: GN4: Native lysin, YP_002284361.1/Lysozyme, SEQ ID NO: 3; first disclosed in WO/2017/049233 (protein)
chain: MRTSQRGIDLIKSFEGLRLSAYQDSVGVWTIGYGTTRGVTRYMTITVEQAERMLSNDIQRFEPELDRLAKVPLNQNQWDALMSFVYNLGAANLASSTLLKLLNKGDYQGAADQFPRWVNAGGKRLDGLVKRRAAERALFLEPLS
modifications: Pseudomonas phage PAJU2
P. aeruginosa [2]
  MIC (μg/mL) in CAA: 64 µg/mL
  MIC (μg/mL in CAA/HuS): 16 µg/mL
  MIC value in CAA/HuS: 16 µg/mL
[3]
  MBEC: 1 µg/mL
[5]
  synergy with antibiotics in the checkerboard assay: synergize with a range of antibiotics
  FICI, Amikacin: 0.531
  FICI, Azithromycin: 0.094
  FICI, Aztreonam: 0.156
  FICI, Ciprofloxacin: 0.250
  FICI, Colistin: 0.156
  FICI, Fosfomycin: 0.250
  FICI, Gentamicin: 0.375
  FICI, Imipenem: 0.125
  FICI, Piperacillin: 0.313
  FICI, Rifampicin: 0.156
  FICI, Tobramycin: 0.375
P. aeruginosa [4]; [6]
  Log10 CFU/mL T = 3 hr: <3.7‡ Log10 CFU/mL
P. aeruginosa [4]; CAA/HuS
  Log10 CFU/mL T = l hr: 6.0 Log10 CFU/mL
P. aeruginosa [4]; [7]
  Log10 CFU/mL T = 3 hr: <3.7‡ Log10 CFU/mL
  Log10 CFU/mL T = l hr: 5.7 Log10 CFU/mL

B4: GN146: Modified GN4, amino acid substitutions (K99D, R115H), SEQ ID NO: 4 (protein)
chain: B3 chain with K100D, R116H
P. aeruginosa [2]
  MIC (μg/mL) in CAA: 2 µg/mL
  MIC (μg/mL in CAA/HuS): 2 µg/mL
  MIC value in CAA/HuS: 2 µg/mL
[3]
  MBEC: 2 µg/mL
P. aeruginosa [4]; [6]
  Log10 CFU/mL T = 3 hr: 4.0‡ Log10 CFU/mL
P. aeruginosa [4]; CAA/HuS
  Log10 CFU/mL T = l hr: 5.9 Log10 CFU/mL
P. aeruginosa [4]; [7]
  Log10 CFU/mL T = 3 hr: <3.7‡ Log10 CFU/mL
  Log10 CFU/mL T = l hr: 6.7 Log10 CFU/mL

B5: GN150: Native lysin, WP_034684053.1/VanY, SEQ ID NO: 19 (protein, listed as Acinetobacter sp.)
chain: MSFKLGKRSLSNLEGVHPDLIKVVKRAIELTECDFTVTEGLRSKERQAQLLKEKKTTTSNSRHLTGHAVDLAAWVNNTVSWDWKYYYQIADAMKKAASELNVSIDWGGDWKKFKDGPHFELTWSKYPIKGAS
P. aeruginosa [2]
  MIC (μg/mL) in CAA: 2 µg/mL
  MIC (μg/mL in CAA/HuS): 32 µg/mL
[3]
  MBEC: 0.25 µg/mL
[5]
  synergy with antibiotics in the checkerboard assay: synergize with a range of antibiotics
  FICI, Amikacin: 0.313
  FICI, Azithromycin: 0.125
  FICI, Aztreonam: 0.188
  FICI, Ciprofloxacin: 0.250
  FICI, Colistin: 0.094
  FICI, Fosfomycin: 0.375
  FICI, Gentamicin: 0.375
  FICI, Imipenem: 0.375
  FICI, Piperacillin: 0.500
  FICI, Rifampicin: 0.094
  FICI, Tobramycin: 0.500
P. aeruginosa [4]; 3-hour timepoint, 10 μg/mL, in either CAA/HuS or HEPES buffer
  bactericidal activity in the time-kill assay format: bactericidal activity
P. aeruginosa [4]; [6]
  Log10 CFU/mL T = 3 hr: <3.7‡ Log10 CFU/mL
P. aeruginosa [4]; CAA/HuS
  Log10 CFU/mL T = l hr: 6.0 Log10 CFU/mL
P. aeruginosa [4]; [7]
  Log10 CFU/mL T = 3 hr: <3.7‡ Log10 CFU/mL
  Log10 CFU/mL T = l hr: 5.7 Log10 CFU/mL

B6: GN94: Modified GN37, N-terminal peptide KFFKFFKFFK with linker, SEQ ID NO: 14 (protein)
chain: KFFKFFKFFKAGAGAGAGAGAGAGAGASMTYTLSKRSLDNLKGVHPDLVAVVHRAIQLTPVDFAVIEGLRSVSRQKELVAAGASKTMNSRHLTGHAVDLAAYVNGIRWDWPLYDAIAVAVKAAAKELGVAIVWGGDWTTFKDGPHFELDRSKYR
P. aeruginosa [2]
  MIC (μg/mL) in CAA: 16 µg/mL
  MIC (μg/mL in CAA/HuS): 2 µg/mL
  MIC value in CAA/HuS: 2 µg/mL
[3]
  MBEC: 2 µg/mL
P. aeruginosa [4]; [6]
  Log10 CFU/mL T = 3 hr: <3.7‡ Log10 CFU/mL
P. aeruginosa [4]; CAA/HuS
  Log10 CFU/mL T = l hr: 6.4 Log10 CFU/mL
P. aeruginosa [4]; [7]
  Log10 CFU/mL T = 3 hr: <3.7‡ Log10 CFU/mL
  Log10 CFU/mL T = l hr: 6.0 Log10 CFU/mL
